Reference: patent US20200330514A1 (TORQUE THERAPEUTICS, published 2020)

T1: human CD45 receptor on the surface of human T cells (human, UniProt P08575 26-1306)
T1 construct: whole, on cells; also called cellular CD45; leukocyte common antigen
T1 sequence (looked up): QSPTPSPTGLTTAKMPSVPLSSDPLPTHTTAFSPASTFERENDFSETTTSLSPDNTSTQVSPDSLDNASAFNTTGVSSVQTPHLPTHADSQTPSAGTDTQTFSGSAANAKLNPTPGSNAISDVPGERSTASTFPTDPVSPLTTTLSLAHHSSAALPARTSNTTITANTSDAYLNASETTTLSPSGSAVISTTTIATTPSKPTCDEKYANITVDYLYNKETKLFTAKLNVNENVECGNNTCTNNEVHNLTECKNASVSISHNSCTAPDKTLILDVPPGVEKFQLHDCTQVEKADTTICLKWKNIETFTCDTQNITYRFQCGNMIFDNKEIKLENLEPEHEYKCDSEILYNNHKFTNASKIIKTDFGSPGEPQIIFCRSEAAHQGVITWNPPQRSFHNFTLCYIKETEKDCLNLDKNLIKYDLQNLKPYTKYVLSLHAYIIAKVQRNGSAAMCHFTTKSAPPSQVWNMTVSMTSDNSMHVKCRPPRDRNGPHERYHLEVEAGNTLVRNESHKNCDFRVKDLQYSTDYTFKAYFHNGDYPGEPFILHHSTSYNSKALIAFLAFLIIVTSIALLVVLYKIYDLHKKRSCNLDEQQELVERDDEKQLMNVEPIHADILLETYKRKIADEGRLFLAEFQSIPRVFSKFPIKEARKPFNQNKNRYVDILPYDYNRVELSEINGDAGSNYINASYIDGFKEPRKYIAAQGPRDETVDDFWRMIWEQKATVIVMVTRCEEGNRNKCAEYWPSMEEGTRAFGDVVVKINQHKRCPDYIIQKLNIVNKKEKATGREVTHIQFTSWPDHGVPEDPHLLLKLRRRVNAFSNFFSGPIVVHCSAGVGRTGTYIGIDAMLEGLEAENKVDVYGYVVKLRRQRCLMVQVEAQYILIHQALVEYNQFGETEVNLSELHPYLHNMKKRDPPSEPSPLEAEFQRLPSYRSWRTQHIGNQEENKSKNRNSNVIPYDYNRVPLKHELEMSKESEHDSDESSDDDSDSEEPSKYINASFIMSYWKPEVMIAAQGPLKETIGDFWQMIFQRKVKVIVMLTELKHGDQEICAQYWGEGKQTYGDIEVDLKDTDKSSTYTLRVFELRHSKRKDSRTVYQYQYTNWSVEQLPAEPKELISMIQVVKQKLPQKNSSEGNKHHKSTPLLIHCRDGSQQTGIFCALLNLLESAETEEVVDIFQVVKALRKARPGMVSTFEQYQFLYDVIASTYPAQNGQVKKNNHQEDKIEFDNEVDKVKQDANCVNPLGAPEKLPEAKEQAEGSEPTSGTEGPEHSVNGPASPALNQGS

T2: mouse CD45 on the surface of mouse T cells (mouse, UniProt P06800 26-1293)
T2 construct: whole, on cells
T2 sequence (looked up): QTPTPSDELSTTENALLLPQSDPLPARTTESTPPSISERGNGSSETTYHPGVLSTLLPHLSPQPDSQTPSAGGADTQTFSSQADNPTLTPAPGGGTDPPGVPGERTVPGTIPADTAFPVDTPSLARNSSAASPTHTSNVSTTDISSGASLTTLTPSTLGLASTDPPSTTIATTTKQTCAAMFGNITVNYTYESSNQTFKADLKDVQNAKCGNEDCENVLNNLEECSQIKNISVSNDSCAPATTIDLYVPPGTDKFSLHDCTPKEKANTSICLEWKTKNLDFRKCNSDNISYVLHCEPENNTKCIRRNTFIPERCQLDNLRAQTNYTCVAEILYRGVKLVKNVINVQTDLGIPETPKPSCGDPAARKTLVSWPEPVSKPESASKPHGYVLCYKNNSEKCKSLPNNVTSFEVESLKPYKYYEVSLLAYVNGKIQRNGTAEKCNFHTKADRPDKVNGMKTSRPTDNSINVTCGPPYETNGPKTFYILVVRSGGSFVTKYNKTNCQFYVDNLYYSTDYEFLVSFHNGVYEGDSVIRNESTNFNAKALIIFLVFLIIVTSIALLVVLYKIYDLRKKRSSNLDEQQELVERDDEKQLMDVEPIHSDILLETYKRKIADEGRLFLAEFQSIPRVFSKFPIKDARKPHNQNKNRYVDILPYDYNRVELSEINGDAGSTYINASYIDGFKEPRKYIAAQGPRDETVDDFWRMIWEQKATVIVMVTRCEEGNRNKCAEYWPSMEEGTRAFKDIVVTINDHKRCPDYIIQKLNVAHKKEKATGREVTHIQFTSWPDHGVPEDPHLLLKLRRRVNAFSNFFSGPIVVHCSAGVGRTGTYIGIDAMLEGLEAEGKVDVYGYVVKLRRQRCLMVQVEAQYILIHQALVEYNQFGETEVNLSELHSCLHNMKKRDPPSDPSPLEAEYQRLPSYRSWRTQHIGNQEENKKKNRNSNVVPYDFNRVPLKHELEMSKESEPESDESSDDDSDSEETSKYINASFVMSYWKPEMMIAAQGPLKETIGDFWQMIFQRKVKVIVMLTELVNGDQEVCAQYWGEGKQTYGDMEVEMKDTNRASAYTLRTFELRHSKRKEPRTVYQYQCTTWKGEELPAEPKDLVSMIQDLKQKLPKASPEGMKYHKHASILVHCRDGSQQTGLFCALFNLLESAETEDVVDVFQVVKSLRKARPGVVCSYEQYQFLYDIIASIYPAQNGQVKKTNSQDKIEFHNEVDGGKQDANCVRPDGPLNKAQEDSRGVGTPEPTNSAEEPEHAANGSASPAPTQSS


Columns and labels:
[1] = target: T1, human CD45 receptor on the surface of …; test: flow cytometry titration on activated primary human CD8 T cells, anti-human IgG-Fc detection
Source text: To evaluate whether anti-CD45 antibodies other than BC8 are capable of generating IFMs with improved potency, we evaluated two additional anti-CD45 monoclonal antibodies (mAb clones 9.4 and 4B2). We first evaluated the binding affinities of chimeric IgG forms of these antibodies to CD45 expressed on the surface of activated CD8 T cells. The chimeric antibodies each comprise mouse variable domains and human constant region (human constant kappa domain and human IgG4 containing an S228P mutation to stabilize the IgG4 hinge region). For comparison with previous results we evaluated these antibodies alongside chBC8, hBC8(23), and a non-binding variant hBC8-null. The humanized BC8 antibody consists of variable domains containing CDR regions grafted from BC8, and the hBC8-null variant contains an SGGGS substitution in the heavy-chain CDR3, which ablates binding to CD45 (FIG. 10A). […]
Cell binding assay. […] Cells were washed with MACS buffer (PBS, 2% FBS, 1 mM EDTA) three times, and antibody binding was detected using a PE-conjugated anti-human IgG-Fc antibody (BioLegend, cat. no. HP6017) for 20 min. at 4° C. […]

[2] = target: T2, mouse CD45 on the surface of mouse T …; test: pulse incubation at 125 nM on activated mouse CD8 T cells, anti-mouse IL-12 staining by flow cytometry (FIG. 32)
Description: We evaluated the ability of tethered fusions comprising an antibody specific for mouse CD45 and the mouse scIL-12p70 cytokine to facilitate loading and persistence of IL-12 on the surface of mouse T cells. Prior to incubation with the mouse IL12-TFs, mouse CD8 T cells were isolated from Pmel mice, activated for two days using antibodies against mouse CD3 and CD28 receptors, and then expanded in the presence of IL-21 for two days. Briefly, isolated CD8 T cells were incubated in full medium (containing RPMI 1640, 10% FBS, insulin-transferrin-selenium, penicillin/streptomycin, and 50 uM beta-mercaptoethanol) in Nunc HighBind plates that were previously coated with antibodies against mouse CD3 and CD28 receptors; the CD3 and CD28 antibodies were coated at concentrations of 0.5 ug/mL and 5 ug/mL, respectively. After approximately 24 hr incubation on the antibody-coated plates IL-2 and IL-7 were added to a final concentrations of 20 ng/mL and 0.5 ng/mL respectively. After a second day of incubation, cells were recovered from the antibody-coated plates and diluted to a density of approximately 200,000 cells/mL into medium containing IL-21 at a final concentration of 20 ng/mL. […] On Days 0, 1, 3, and 5 after the pulse incubation cells were immunostained using antibodies specific to mouse IL-12 and analyzed on a FACSCelesta using Diva Software; data was analyzed using FlowJo. […]

Row | binding result [1] | binding result [2] | Binder
1 | no binding (tested: 500 nM) | – | hBC8-null humanized BC8 antibody with SGGGS substitution in CDR-H3 (IgG form) (antibody, V domains shown, constant regions of the tested antibody not spelled out; also called hBC8(23)-null) VH: EVQLVESGGGLVQPGGSLRLSCAASGFDFSRYWMSWVRQAPGKGLEWIGEINPTSSTINFADSVKGRFTISRDNAKNSLYLQMNSVRDEDTAVYYCARGSGGGSGDAMDYWGQGTLVTVSS VL: EIVLTQSPATLSLSLGERATISCRASKSVSTSGYSYLHWYQQKPGQAPKLLIYLASNRATGVPARFSGSGPGTDFTLTISSLEPEDFATYYCQHSRELPFTFGQGTKLEIK
2 | – | binds | chM1Fab-M1scFv-scIL-12p70 (other) heavy: QVNLLQSGAALVKPGASVKLSCKASGYTFTDYYIHWVKQSHGKSLEWVAYINPDRDYTNYNEKFKSKATLTVDKSTNTAYMELSRLTSEDSATFYCTRRLYDGAYYYSWFAYWGQGTLVTVSSASTKGPSVFPLAPSSKSTSGGTAALGCLVKDYFPEPVTVSWNSGALTSGVHTFPAVLQSSGLYSLSSVVTVPSSSLGTQTYICNVNHKPSNTKVDKKVEPKSCGGGGSGGGGSGGGGSQVNLLQSGAALVKPGASVKLSCKASGYTFTDYYIHWVKQSHGKSLEWVAYINPDRDYTNYNEKFKSKATLTVDKSTNTAYMELSRLTSEDSATFYCTRRLYDGAYYYSWFAYWGQGTLVTVSSGGGGSGGGGSGGGGSGGGGSDIQMTQSPHSLSASLGETVSIECLASEGISNYLAWYQQKPGKSPQLLIYYGSRLQDGVPSRFSGSGSGTQYSLRITNMQPEDEGVYYCQQGYKYPYTFGAGTKLELK light: DIQMTQSPHSLSASLGETVSIECLASEGISNYLAWYQQKPGKSPQLLIYYGSRLQDGVPSRFSGSGSGTQYSLRITNMQPEDEGVYYCQQGYKYPYTFGAGTKLELKRTVAAPSVFIFPPSDEQLKSGTASVVCLLNNFYPREAKVQWKVDNALQSGNSQESVTEQDSKDSTYSLSSTLTLSKADYEKHKVYACEVTHQGLSSPVTKSFNRGECGGGGSGGGGSGGGGSMWELEKDVYVVEVDWTPDAPGETVNLTCDTPEEDDITWTSDQRHGVIGSGKTLTITVKEFLDAGQYTCHKGGETLSHSHLLLHKKENGIWSTEILKNFKNKTFLKCEAPNYSGRFTCSWLVQRNMDLKFNIKSSSSSPDSRAVTCGMASLSAEKVTLDQRDYEKYSVSCQEDVTCPTAEETLPIELALEARQQNKYENYSTSFFIRDIIKPDPPKNLQMKPLKNSQVEVSWEYPDSWSTPHSYFSLKFFVRIQRKKEKMKETEEGCNQKGAFLVEKTSTEVQCKGGNVCVQAQDRYYNSSCSKWACVPCRVRSGGGGSGGGGSGGGGSGGGGSRVIPVSGPARCLSQSRNLLKTTDDMVKTAREKLKHYSCTAEDIDHEDITRDQTSTLKTCLPLELHKNESCLATRETSSTTRGSCLPPQKTSLMMTLCLGSIYEDLKMYQTEFQAINAALQNHNHQQIILDKGMLVAIDELMQSLNHNGETLRQKPPVGEADPYRVKMKLCILLHAFSTRVVTINRVMGYLSSA
